In paper PMC11564547, “An interaction network of inner centriole proteins organised by POC1A-POC1B heterodimer crosslinks ensures centriolar integrity” (Nature Communications, 2024):

B3: POC5-HA-TEV-2xFLAG (wild type POC5 of the POC5-Centrin2 complex from insect cells) (natural protein, human, UniProt Q8NA72 1-575, looked up)
chain: MSSDEEKYSLPVVQNDSSRGSSVSSNLQEEYEELLHYAIVTPNIEPCASQSSHPKGELVPDVRISTIHDILHSQGNNSEVRETAIEVGKGCDFHISSHSKTDESSPVLSPRKPSHPVMDFFSSHLLADSSSPATNSSHTDAHEILVSDFLVSDENLQKMENVLDLWSSGLKTNIISELSKWRLNFIDWHRMEMRKEKEKHAAHLKQLCNQINELKELQKTFEISIGRKDEVISSLSHAIGKQKEKIELMRTFFHWRIGHVRARQDVYEGKLADQYYQRTLLKKVWKVWRSVVQKQWKDVVERACQARAEEVCIQISNDYEAKVAMLSGALENAKAEIQRMQHEKEHFEDSMKKAFMRGVCALNLEAMTIFQNRNDAGIDSTNNKKEEYGPGVQGKEHSAHLDPSAPPMPLPVTSPLLPSPPAAVGGASATAVPSAASMTSTRAASASSVHVPVSALGAGSAATAASEEMYVPRVVTSAQQKAGRTITARITGRCDFASKNRISSSLAIMGVSPPMSSVVVEKHHPVTVQTIPQATAAKYPRTIHPESSTSASRSLGTRSAHTQSLTSVHSIKVVD
notes: POC5, human; cDNA from SinoBiological; No TEV cleavage is described; also called POC5-TEV-2xFLAG; full-length POC5; not shown: 2xFLAG (after a TEV site), C-terminal, kept

Experiments:
[1] = biological target: B3; experiment: mass photometry; purified POC5-Centrin2 complex (co-expressed in insect cells, FLAG affinity and SEC); 1 µl of 400 nM protein in 19 µl SEC buffer (50 mM Tris pH 7.5, 150 mM NaCl, 1 mM MgCl2); Refeyn TwoMP; conditions: both partners purified
[2] = biological target: the molecule itself; experiment: negative stain EM; purified POC5-Centrin2 complexes (co-expressed in insect cells, FLAG affinity and SEC); 3% uranyl acetate; 2D classification and low-resolution 3D reconstruction
[3] = biological target: the molecule itself; experiment: mass photometry; purified POC5-Centrin2 complex (co-expressed in insect cells, FLAG affinity and SEC); 1 µl of 400 nM protein in 19 µl SEC buffer (50 mM Tris pH 7.5, 150 mM NaCl, 1 mM MgCl2); Refeyn TwoMP

B1: Centrin2 (natural protein, human, UniProt P41208 1-172, looked up)
chain: MASNFKKANMASSSQRKRMSPKPELTEEQKQEIREAFDLFDADGTGTIDVKELKVAMRALGFEPKKEEIKKMISEIDKEGTGKMNFGDFLTVMTQKMSEKDTKEEILKAFKLFDDDETGKISFKNLKRVAKELGENLTDEELQEMIDEADRDGDGEVSEQEFLRIMKKTSLY
notes: Centrin2 (CETN2), human; amplified and cloned into pACEBac1; also called CETN2; CEN2; source: Sf21 insect cells (MultiBac baculovirus), co-expressed with POC5-TEV-2xFLAG, co-purified (anti-FLAG beads, SEC)
- stoichiometry N [1]: ~6 Centrin2 molecules per POC5 tetramer

B2: POC5^Δ153-184-TEV-2xFLAG (of the POC5^Δ153-184-Centrin2 complex from insect cells) (natural protein, human, UniProt Q8NA72 1-575, looked up)
chain: MSSDEEKYSLPVVQNDSSRGSSVSSNLQEEYEELLHYAIVTPNIEPCASQSSHPKGELVPDVRISTIHDILHSQGNNSEVRETAIEVGKGCDFHISSHSKTDESSPVLSPRKPSHPVMDFFSSHLLADSSSPATNSSHTDAHEILVSDFLVSFIDWHRMEMRKEKEKHAAHLKQLCNQINELKELQKTFEISIGRKDEVISSLSHAIGKQKEKIELMRTFFHWRIGHVRARQDVYEGKLADQYYQRTLLKKVWKVWRSVVQKQWKDVVERACQARAEEVCIQISNDYEAKVAMLSGALENAKAEIQRMQHEKEHFEDSMKKAFMRGVCALNLEAMTIFQNRNDAGIDSTNNKKEEYGPGVQGKEHSAHLDPSAPPMPLPVTSPLLPSPPAAVGGASATAVPSAASMTSTRAASASSVHVPVSALGAGSAATAASEEMYVPRVVTSAQQKAGRTITARITGRCDFASKNRISSSLAIMGVSPPMSSVVVEKHHPVTVQTIPQATAAKYPRTIHPESSTSASRSLGTRSAHTQSLTSVHSIKVVD
notes: made with deletion primers from the POC5-TEV-2xFLAG CEN2 construct; source: insect cells (MultiBac baculovirus), co-expressed with Centrin2, purified (anti-FLAG beads, 3xFLAG peptide elution, SEC); not shown: 2xFLAG (after a TEV site), C-terminal, kept
- stoichiometry N [2]: 2

Binder: B3
- stoichiometry N [3]: 4
